The conditions of data set [1]: mice, earlier reports; cited from earlier work.
The next data set has as its system anti-AChE antibody. The experiment in a line: Immunogenicity in rhesus macaques: anti-AChE antibody formation by ELISA after repeated monthly administration. The data set is classed as in vivo. To be noted: monthly intervals, no adjuvant. From the text:
Anti-AChE antibody levels elicited by PEGylated rHuAChE, were compared to those induced by nonmodified rHuAChE or FBS-AChE, following their administration to rhesus macaques. To this end, non-modified or PEG-modified AChE or the heterologous FBS-AChE (no adjuvant included) were repeatedly administered to monkeys at monthly intervals, and anti-AChE antibody formation was monitored by ELISA (FIG. 8).
In general terms: An ELISA detects its analyte on a solid surface through an enzyme-linked reagent.

“horse BChE: serum derived horse butyrylcholinesterase [reference compound]”: in data set [1], the “MRT (mean residual time)” value is “approximately 1,400 minutes”.

B1: serum derived human BChE: serum derived human butyrylcholinesterase (protein, UniProt P06276 29-602, looked up)
Cholinesterase: EDDIIIATKNGKVRGMNLTVFGGTVTAFLGIPYAQPPLGRLRFKKPQSLTKWSDIWNATKYANSCCQNIDQSFPGFHGSEMWNPNTDLSEDCLYLNVWIPAPKPKNATVLIWIYGGGFQTGTSSLHVYDGKFLARVERVIVVSMNYRVGALGFLALPGNPEAPGNMGLFDQQLALQWVQKNIAAFGGNPKSVTLFGESAGAASVSLHLLSPGSHSLFTRAILQSGSFNAPWAVTSLYEARNRTLNLAKLTGCSRENETEIIKCLRNKDPQEILLNEAFVVPYGTPLSVNFGPTVDGDFLTDMPDILLELGQFKKTQILVGVNKDEGTAFLVYGAPGFSKDNNSIITRKEFQEGLKIFFPGVSEFGKESILFHYTDWVDDQRPENYREALGDVVGDYNFICPALEFTKKFSEWGNNAFFYYFEHRSSKLPWPEWMGVMHGYEIEFVFGLPLERRDNYTKAEEILSRSIVKRWANFAKYGNPNETQNNSTSWPVFKSTEQKYLTLNTESTRIMTKLRAQQCRFWTSFFPKVLEMTGNIDEAEWEWKAGFHRWNNYMMDWKNQFNDYTSKKESCVGL
Regarding B1, the “MRT (mean residual time)” value in data set [1] is “approximately 1,400 minutes”.

B2: fetal bovine AChE: serum derived fetal bovine AChE; heterologous FBS-AChE in the monkey study (protein, UniProt P23795 31-613, looked up)
Acetylcholinesterase: EGPEDPELLVMVRGGRLRGLRLMAPRGPVSAFLGIPFAEPPVGPRRFLPPEPKRPWPGVLNATAFQSVCYQYVDTLYPGFEGTEMWNPNRELSEDCLYLNVWTPYPRPSSPTPVLVWIYGGGFYSGASSLDVYDGRFLTQAEGTVLVSMNYRVGAFGFLALPGSREAPGNVGLLDQRLALQWVQENVAAFGGDPTSVTLFGESAGAASVGMHLLSPPSRGLFHRAVLQSGAPNGPWATVGVGEARRRATLLARLVGCPPGGAGGNDTELVACLRARPAQDLVDHEWRVLPQESVFRFSFVPVVDGDFLSDTPEALINAGDFHGLQVLVGVVKDEGSYFLVYGAPGFSKDNESLISRAQFLAGVRVGVPQASDLAAEAVVLHYTDWLHPEDPARLREALSDVVGDHNVVCPVAQLAGRLAAQGARVYAYIFEHRASTLSWPLWMGVPHGYEIEFIFGLPLEPSLNYTIEERTFAQRLMRYWANFARTGDPNDPRDPKAPQWPPYTAGAQQYVSLNLRPLEVRRGLRAQACAFWNRFLPKLLSATDTLDEAERQWKAEFHRWSSYMVHWKNQFDHYSKQDRCSDL
As for B2, the “development of anti-AChE antibody after repeated administrations” value in the data set on anti-AChE antibody is listed as “following the third administration”. In data set [1], the “MRT (mean residual time)” value is listed as “approximately 1,400 minutes”.

These data come from patent publication US8980609B2, “Uniformly conjugated serine hydrolases” (Israel Institute for Biological Research, priority 2005, dated 2015).
